{"source": "patent US7838495B2", "about": "“Compositions and methods of use of EPB1, and ErbB3 binding protein” (University of Maryland, Baltimore, priority 2007, dated 2010)", "type_in_all_cases": "cell-based, human", "key": {"C81 cells [1]": {"system": "C81 cells", "test": "RT-PCR, Western blot and ELISA in C81 EBP1 transfectants", "procedure": "FIG. 5A-D. Expression of genes associated with androgen independence is decreased in C81 EBP1 transfectants. A. Lysates of logarithmically growing clones of C81 EBP1 transfectants (E1,2) or vector controls (V 1,2) were resolved by SDS-PAGE and immunoblotted for AR, BCL-2, BAD, FLAG, EBP1 and ACTIN as indicated. Representative of 3 experiments. B. Secreted PSA as measured by ELISA. EBP1 and vector control cells were plated at 1×10^6 cells/100 mm dish in complete media. Forty-eight hours later, conditioned media were collected and frozen. PSA activity was assessed by ELISA. Levels of PSA were adjusted to total cell number. Data is representative of 2 experiments. C. Validation of mRNA levels in EBP1 transfectants. Quantitative RT PCR was performed for the KALLIKREIN-2, AGR2 and TSPY genes in EBP1 and vector transfectants. The relative levels of all test mRNAs were normalized to β-ACTIN. Results are representative of 3 experiments using different sets of cells. D. Expression of AGR2 protein in vector and EBP1 C81 transfectants. Lysates of vector control (V) or EBP1 (E) transfected cells grown in complete media were resolved by SDS-PAGE and analyzed by Western blotting with antibody to AGR2.\nMicroarray Analysis and Bioinformatics. RNA was prepared using the Trizol Reagent as previously described (8). Microarray processing and data analysis was performed at Genome Explorations (Nashville, Tenn.). U133A oligonucleotide arrays (Affymetrix) containing ˜33,000 full length annotated genes together with additional probe sets designed to represent EST sequences were used for the analysis. Only genes with a minimum expression level of 500 were included in this analysis. […] Oncomine analyses were performed by using Oncomine 3.0 (www.oncomine.org). Real Time Quantitative Reverse-Transcription PCR. Both cell culture samples and a commercial panel of cDNAs from normal prostate and prostate tumors (TissueScan, Origene, Rockville, Md.) were examined. The method of Nakanishi et al. (15) was used as previously described. Real-time quantitative RT-PCR was performed on the LightCycler® (Roche) platform. The following forward and reverse primers were selected using Primer Express software and synthesized by the Core Laboratory of University of Maryland School of Medicine: Ebp1, sense: 5′-GCA CGC CAA TAG AAG G-3′ (SEQ ID NO: 16) and antisense: 5′-GTA AAC GGC ATG GCA TC-3′ (SEQ ID NO: 17) kallikrein-2 sense: 5′-CAT CCA GTC TCG GAT TG-3′ (SEQ ID NO: 18) and antisense: 5′-CTC ATA TTG TAG AGC GGG T-3′ (SEQ ID NO: 19), TSPY, sense: 5′-CAGGGCTTCTCATTCCACTC-3′ (SEQ ID NO: 20) and antisense: 5′-CCATCATATTCAACTCAACAA CTGG-3′ (16; SEQ ID NO: 21), AGR2, sense: 5′-ATTGGCAGAGCAGTTTCTCC-3′ (SEQ ID NO: 22) and antisense, 5′-GAGCTGTATCTGCAGGTTCGT (17; SEQ ID NO: 23) 13-Actin, sense: 5′-GCTATCCAGGCTGTGCTATC-3′ (SEQ ID NO: 24) and antisense 5′-TGT CAC GCA CGA TTT CC-3′ (SEQ ID NO: 25). A SYBR®Green PCR Kit was used as per the manufacturer's instructions (Applied Biosystems, Foster City, Calif.) and the analyses were performed in duplicate or triplicate.\nMeasurement of PSA levels. Serum PSA levels were determined using a PSA ELISA kit from DSL, Inc (Webster, Tex.) as previously described (9).\nWestern Blot Analysis. Western blot analysis was performed as previously described (19). The Ebp1 antibody was from Upstate (Lake Placid, N.Y.), the polyclonal antibody to actin from Sigma, the AKT and phospho AKT antibodies from Cell Signaling (Beverly, Mass.) and the AGR2 antibody was previously described (20) Cell Growth Assays Cell growth measurement in complete media was performed as described using a hemocytometer (21). For soft agar growth assays, increasing concentrations of cells (as indicated) were plated in 35 mm Petri dishes in 0.3% agar in complete media and colonies were counted after 10 days of incubation (21). […]"}, "LNCaP cells": {"system": "LNCaP cells", "test": "Cell growth assays of LNCaP EPB1 transfectants (complete media, soft agar)", "procedure": "Cell Growth Assays: To measure growth in complete media, cells (2×10^4) were seeded in triplicate in individual wells of 12-well tissue culture plates in RPMI-1640 with 10% FBS and cultured for the indicated number of days. Cells were trypsinized, stained with Trypan Blue (0.4%), and counted in a hemacytometer. For soft agar growth assays, increasing concentrations of cells (as indicated) were plated in 35 mm Petri dishes in complete media and 0.3% Difco Bacto Agar over an 0.5% agar layer. Colonies were counted after 10 days of incubation. For studies assessing the effect of dihydrotestosterone (DHT) on cell growth, cells (2×10^4) were plated in 12-well plates in complete media. After a 24-hour attachment period, the medium was replaced with steroid-free medium [phenol red-free RPMI 1640 and 5% charcoal-stripped FBS (Sigma)] for 48 hours. The final concentration of testosterone in the steroid-reduced media was less than 5 pM. After 48 hours of steroid depletion, cells were re-fed with fresh steroid-reduced medium with or without the indicated concentrations of DHT and/or bicalutamide (10 μM), and total cell numbers were assessed 7 days later."}, "C81 cells [2]": {"system": "C81 cells", "test": "Sensitivity of C81 transfectants to 4 Gy gamma radiation", "conditions": "C81 EPB1 transfectants, 72 h after exposure (vector less than 10%)", "excerpt": "Restoration or increase of EPB1 expression can sensitize the androgen independent prostate cancer C81 cells to radiation. Radiotherapy is another important treatment for locally and regionally advanced prostate cancer. However, resistance of prostate cancer cells to radiation limits its efficacy and dose escalation is obviously not the solution to this common phenomenon. Bcl-2 overexpression may be the same critical molecule underlying the resistance to radiotherapy as to the chemotherapy in prostate cancer. 4 Gy gamma radiation killed 100% of EPB1 transfectants while less than 10% of C81 vector transfectants were dead in 72 h after exposure to the same 4 Gy gamma irradiation. […] Without being bound by theory, it is contemplated that the increase in sensitivity to radiation might be due to the decreased levels of Bcl-2 in EPB1 transfectants given the importance of Bcl-2 function in resistance to radiation."}, "[3]": {"conditions": "C81 EBP1 transfectants vs vector controls, real time RT-PCR"}, "[4]": {"conditions": "C81 clones transfected with FLAG-tagged EBP1, Western blot"}}}
{"molecule": "EBP1: ErbB3 binding protein (SEQ ID NO: 2), AR corepressor, here ectopically expressed in cancer cells by stable transfection of an expression plasmid (protein, listed as Homo sapiens, FLAG tag) MSGEDEQQEQTIAEDLVVTKYKMGGDIANRVLRSLVEASSSGVSVLSLCEKGDAMIMEETGKIFKKEKEMKKGIAFPTSISVNNCVCHFSPLKSDQDYILKEGDLVKIDLGVHVDGFIANVAHTFVVDVAQGTQVTGRKADVIKAAHLCAEAALRLVKPGNQNTQVTEAWNKVAHSFNCTPIEGMLSHQLKQHVIDGEKTIIQNPTDQQKKDHEKAEFEVHEVYAVDVLVSSGEGKAKDAGQRTTIYKRDPSKQYGLKMKTSRAFFSEVERRFDAMPFTLRAFEDEKKARMGVVECAKHELLQPFNVLYEKEGEFVAQFKFTVLLMPNGPMRITSGPFEPDLYKSEMEVQDAELKALLQSSASRKTQKKKKKKASKTAENATSGETLEENEAGD", "values": [{"measurement": "AGR2 protein", "setting": "C81 cells [1]; C81 EBP1 transfectants in complete media, Western blot", "result": "decreased"}, {"measurement": "decrease of secreted PSA protein levels", "setting": "C81 cells [1]; C81 EBP1 transfectants vs vector controls, ELISA", "result": 60, "unit": "%"}, {"measurement": "AGR2 mRNA downregulation", "setting": "C81 cells [1]; [3]", "result": "over 90%"}, {"measurement": "Kallikrein-2 mRNA downregulation", "setting": "C81 cells [1]; [3]", "result": "over 80%"}, {"measurement": "TSPY mRNA downregulation", "setting": "C81 cells [1]; C81 EBP1 transfectants, real time RT-PCR", "result": "over 90%"}, {"measurement": "AR protein level", "setting": "C81 cells [1]; [4]", "result": "markedly reduced"}, {"measurement": "BAD protein level", "setting": "C81 cells [1]; [4]", "result": "remained the same as the vector controls"}, {"measurement": "Bcl2 protein level", "setting": "C81 cells [1]; [4]", "result": "markedly reduced"}, {"measurement": "growth rate in complete media", "setting": "LNCaP cells; LNCaP EPB1 transfectants vs vector control, p<0.05", "result": "significantly decreased"}, {"measurement": "doubling time", "setting": "LNCaP cells; LNCaP EPB1 transfectants, complete media (vector control 48 hours)", "result": 72, "unit": "h"}, {"measurement": "decrease of colony growth in soft agar", "setting": "LNCaP cells; LNCaP, highest cell concentration tested, ten days", "result": "approximately 90%"}, {"measurement": "cells killed by 4 Gy gamma radiation", "setting": "C81 cells [2]", "result": 100, "unit": "%"}]}
